{"source": "patent US20260001928A1", "about": "(CORTERIA PHARMACEUTICALS, priority 2022, published 2026)", "binders": {"B1": {"name": "SEQ ID NO 66 (peptide)", "peptide": "[NMeI]VLSLD[dV]PIKLK([γGlu-C16 diacid])KILLEQEKQKKQREQAETNVQILAQV-NH2", "modifications": "N-terminus assumed", "SMILES": "CC[C@H](C)[C@H](NC)C(=O)N[C@H](C(=O)N[C@@H](CC(C)C)C(=O)N[C@@H](CO)C(=O)N[C@@H](CC(C)C)C(=O)N[C@@H](CC(=O)O)C(=O)N[C@@H](C(=O)N1CCC[C@H]1C(=O)N[C@H](C(=O)N[C@@H](CCCCN)C(=O)N[C@@H](CC(C)C)C(=O)N[C@@H](CCCCNC(=O)CC[C@H](NC(=O)CCCCCCCCCCCCCCC(=O)O)C(=O)O)C(=O)N[C@@H](CCCCN)C(=O)N[C@H](C(=O)N[C@@H](CC(C)C)C(=O)N[C@@H](CC(C)C)C(=O)N[C@@H](CCC(=O)O)C(=O)N[C@@H](CCC(N)=O)C(=O)N[C@@H](CCC(=O)O)C(=O)N[C@@H](CCCCN)C(=O)N[C@@H](CCC(N)=O)C(=O)N[C@@H](CCCCN)C(=O)N[C@@H](CCCCN)C(=O)N[C@@H](CCC(N)=O)C(=O)N[C@@H](CCCNC(=N)N)C(=O)N[C@@H](CCC(=O)O)C(=O)N[C@@H](CCC(N)=O)C(=O)N[C@@H](C)C(=O)N[C@@H](CCC(=O)O)C(=O)N[C@H](C(=O)N[C@@H](CC(N)=O)C(=O)N[C@H](C(=O)N[C@@H](CCC(N)=O)C(=O)N[C@H](C(=O)N[C@@H](CC(C)C)C(=O)N[C@@H](C)C(=O)N[C@@H](CCC(N)=O)C(=O)N[C@H](C(N)=O)C(C)C)[C@@H](C)CC)C(C)C)[C@@H](C)O)[C@@H](C)CC)[C@@H](C)CC)C(C)C)C(C)C"}, "B2": {"name": "SEQ ID NO 81 (peptide)", "peptide": "Pentanoyl-VLSLD[dV]PIKLK([γGlu-C16 diacid])KILLEQEKQKKQREQAETNVQILAQV-NH2", "SMILES": "CCCCC(=O)N[C@H](C(=O)N[C@@H](CC(C)C)C(=O)N[C@@H](CO)C(=O)N[C@@H](CC(C)C)C(=O)N[C@@H](CC(=O)O)C(=O)N[C@@H](C(=O)N1CCC[C@H]1C(=O)N[C@H](C(=O)N[C@@H](CCCCN)C(=O)N[C@@H](CC(C)C)C(=O)N[C@@H](CCCCNC(=O)CC[C@H](NC(=O)CCCCCCCCCCCCCCC(=O)O)C(=O)O)C(=O)N[C@@H](CCCCN)C(=O)N[C@H](C(=O)N[C@@H](CC(C)C)C(=O)N[C@@H](CC(C)C)C(=O)N[C@@H](CCC(=O)O)C(=O)N[C@@H](CCC(N)=O)C(=O)N[C@@H](CCC(=O)O)C(=O)N[C@@H](CCCCN)C(=O)N[C@@H](CCC(N)=O)C(=O)N[C@@H](CCCCN)C(=O)N[C@@H](CCCCN)C(=O)N[C@@H](CCC(N)=O)C(=O)N[C@@H](CCCNC(=N)N)C(=O)N[C@@H](CCC(=O)O)C(=O)N[C@@H](CCC(N)=O)C(=O)N[C@@H](C)C(=O)N[C@@H](CCC(=O)O)C(=O)N[C@H](C(=O)N[C@@H](CC(N)=O)C(=O)N[C@H](C(=O)N[C@@H](CCC(N)=O)C(=O)N[C@H](C(=O)N[C@@H](CC(C)C)C(=O)N[C@@H](C)C(=O)N[C@@H](CCC(N)=O)C(=O)N[C@H](C(N)=O)C(C)C)[C@@H](C)CC)C(C)C)[C@@H](C)O)[C@@H](C)CC)[C@@H](C)CC)C(C)C)C(C)C"}, "B3": {"name": "SEQ ID NO 121 (peptide)", "peptide": "Pentanoyl-VLSLD[dV]PIKLK([AEEA-AEEA-γGlu-C18 diacid])KILLEQEKQKKQREQAETNVQILAQV-NH2", "SMILES": "CCCCC(=O)N[C@H](C(=O)N[C@@H](CC(C)C)C(=O)N[C@@H](CO)C(=O)N[C@@H](CC(C)C)C(=O)N[C@@H](CC(=O)O)C(=O)N[C@@H](C(=O)N1CCC[C@H]1C(=O)N[C@H](C(=O)N[C@@H](CCCCN)C(=O)N[C@@H](CC(C)C)C(=O)N[C@@H](CCCCNC(=O)COCCOCCNC(=O)COCCOCCNC(=O)CC[C@H](NC(=O)CCCCCCCCCCCCCCCCC(=O)O)C(=O)O)C(=O)N[C@@H](CCCCN)C(=O)N[C@H](C(=O)N[C@@H](CC(C)C)C(=O)N[C@@H](CC(C)C)C(=O)N[C@@H](CCC(=O)O)C(=O)N[C@@H](CCC(N)=O)C(=O)N[C@@H](CCC(=O)O)C(=O)N[C@@H](CCCCN)C(=O)N[C@@H](CCC(N)=O)C(=O)N[C@@H](CCCCN)C(=O)N[C@@H](CCCCN)C(=O)N[C@@H](CCC(N)=O)C(=O)N[C@@H](CCCNC(=N)N)C(=O)N[C@@H](CCC(=O)O)C(=O)N[C@@H](CCC(N)=O)C(=O)N[C@@H](C)C(=O)N[C@@H](CCC(=O)O)C(=O)N[C@H](C(=O)N[C@@H](CC(N)=O)C(=O)N[C@H](C(=O)N[C@@H](CCC(N)=O)C(=O)N[C@H](C(=O)N[C@@H](CC(C)C)C(=O)N[C@@H](C)C(=O)N[C@@H](CCC(N)=O)C(=O)N[C@H](C(N)=O)C(C)C)[C@@H](C)CC)C(C)C)[C@@H](C)O)[C@@H](C)CC)[C@@H](C)CC)C(C)C)C(C)C"}, "B4": {"name": "SEQ ID NO 18 (peptide)", "peptide": "Ac-IVLSLD[dV]PIKLK([γGlu-C16 diacid])Q[Aib]LLKQERQKKQREQAEKNVQILEQV-NH2", "SMILES": "CC[C@H](C)[C@H](NC(C)=O)C(=O)N[C@H](C(=O)N[C@@H](CC(C)C)C(=O)N[C@@H](CO)C(=O)N[C@@H](CC(C)C)C(=O)N[C@@H](CC(=O)O)C(=O)N[C@@H](C(=O)N1CCC[C@H]1C(=O)N[C@H](C(=O)N[C@@H](CCCCN)C(=O)N[C@@H](CC(C)C)C(=O)N[C@@H](CCCCNC(=O)CC[C@H](NC(=O)CCCCCCCCCCCCCCC(=O)O)C(=O)O)C(=O)N[C@@H](CCC(N)=O)C(=O)NC(C)(C)C(=O)N[C@@H](CC(C)C)C(=O)N[C@@H](CC(C)C)C(=O)N[C@@H](CCCCN)C(=O)N[C@@H](CCC(N)=O)C(=O)N[C@@H](CCC(=O)O)C(=O)N[C@@H](CCCNC(=N)N)C(=O)N[C@@H](CCC(N)=O)C(=O)N[C@@H](CCCCN)C(=O)N[C@@H](CCCCN)C(=O)N[C@@H](CCC(N)=O)C(=O)N[C@@H](CCCNC(=N)N)C(=O)N[C@@H](CCC(=O)O)C(=O)N[C@@H](CCC(N)=O)C(=O)N[C@@H](C)C(=O)N[C@@H](CCC(=O)O)C(=O)N[C@@H](CCCCN)C(=O)N[C@@H](CC(N)=O)C(=O)N[C@H](C(=O)N[C@@H](CCC(N)=O)C(=O)N[C@H](C(=O)N[C@@H](CC(C)C)C(=O)N[C@@H](CCC(=O)O)C(=O)N[C@@H](CCC(N)=O)C(=O)N[C@H](C(N)=O)C(C)C)[C@@H](C)CC)C(C)C)[C@@H](C)CC)C(C)C)C(C)C"}, "B5": {"name": "SEQ ID NO 22 (peptide)", "peptide": "Pentanoyl-VLSLD[dV]PIKLK([γGlu-C16 diacid])Q[Aib]LLKQERQKKQREQAEKNVQILEQV-NH2", "SMILES": "CCCCC(=O)N[C@H](C(=O)N[C@@H](CC(C)C)C(=O)N[C@@H](CO)C(=O)N[C@@H](CC(C)C)C(=O)N[C@@H](CC(=O)O)C(=O)N[C@@H](C(=O)N1CCC[C@H]1C(=O)N[C@H](C(=O)N[C@@H](CCCCN)C(=O)N[C@@H](CC(C)C)C(=O)N[C@@H](CCCCNC(=O)CC[C@H](NC(=O)CCCCCCCCCCCCCCC(=O)O)C(=O)O)C(=O)N[C@@H](CCC(N)=O)C(=O)NC(C)(C)C(=O)N[C@@H](CC(C)C)C(=O)N[C@@H](CC(C)C)C(=O)N[C@@H](CCCCN)C(=O)N[C@@H](CCC(N)=O)C(=O)N[C@@H](CCC(=O)O)C(=O)N[C@@H](CCCNC(=N)N)C(=O)N[C@@H](CCC(N)=O)C(=O)N[C@@H](CCCCN)C(=O)N[C@@H](CCCCN)C(=O)N[C@@H](CCC(N)=O)C(=O)N[C@@H](CCCNC(=N)N)C(=O)N[C@@H](CCC(=O)O)C(=O)N[C@@H](CCC(N)=O)C(=O)N[C@@H](C)C(=O)N[C@@H](CCC(=O)O)C(=O)N[C@@H](CCCCN)C(=O)N[C@@H](CC(N)=O)C(=O)N[C@H](C(=O)N[C@@H](CCC(N)=O)C(=O)N[C@H](C(=O)N[C@@H](CC(C)C)C(=O)N[C@@H](CCC(=O)O)C(=O)N[C@@H](CCC(N)=O)C(=O)N[C@H](C(N)=O)C(C)C)[C@@H](C)CC)C(C)C)[C@@H](C)CC)C(C)C)C(C)C"}, "B6": {"name": "SEQ ID NO 35 (peptide)", "peptide": "Propionyl-VLSLD[dV]PIKLK([γGlu-C16 diacid])KILLEQEKQKKQREQAETNKQILAQV-NH2", "SMILES": "CCC(=O)N[C@H](C(=O)N[C@@H](CC(C)C)C(=O)N[C@@H](CO)C(=O)N[C@@H](CC(C)C)C(=O)N[C@@H](CC(=O)O)C(=O)N[C@@H](C(=O)N1CCC[C@H]1C(=O)N[C@H](C(=O)N[C@@H](CCCCN)C(=O)N[C@@H](CC(C)C)C(=O)N[C@@H](CCCCNC(=O)CC[C@H](NC(=O)CCCCCCCCCCCCCCC(=O)O)C(=O)O)C(=O)N[C@@H](CCCCN)C(=O)N[C@H](C(=O)N[C@@H](CC(C)C)C(=O)N[C@@H](CC(C)C)C(=O)N[C@@H](CCC(=O)O)C(=O)N[C@@H](CCC(N)=O)C(=O)N[C@@H](CCC(=O)O)C(=O)N[C@@H](CCCCN)C(=O)N[C@@H](CCC(N)=O)C(=O)N[C@@H](CCCCN)C(=O)N[C@@H](CCCCN)C(=O)N[C@@H](CCC(N)=O)C(=O)N[C@@H](CCCNC(=N)N)C(=O)N[C@@H](CCC(=O)O)C(=O)N[C@@H](CCC(N)=O)C(=O)N[C@@H](C)C(=O)N[C@@H](CCC(=O)O)C(=O)N[C@H](C(=O)N[C@@H](CC(N)=O)C(=O)N[C@@H](CCCCN)C(=O)N[C@@H](CCC(N)=O)C(=O)N[C@H](C(=O)N[C@@H](CC(C)C)C(=O)N[C@@H](C)C(=O)N[C@@H](CCC(N)=O)C(=O)N[C@H](C(N)=O)C(C)C)[C@@H](C)CC)[C@@H](C)O)[C@@H](C)CC)[C@@H](C)CC)C(C)C)C(C)C"}}, "note": "*1 amine or outer side, *2 acyl side, *3 side chain or, on linkers, in order; H or OH if unused. Where no end group is shown, it is not given here. Side-chain parts run from the residue outwards. [ ]: non-standard residue; d: D form. The star is where a group is joined. C18 diacid = O=C(O)CCCCCCCCCCCCCCCCC(=O)*; C16 diacid = O=C(O)CCCCCCCCCCCCCCC(=O)*; γGlu = O=C(O)[C@H](CCC(=O)[*:2])N[*:1]; NMeI = CC[C@H](C)[C@H](NC)C(=O)O; Pentanoyl = CCCCC(=O)*; AEEA = NCCOCCOCC(=O)O; Aib = CC(C)(N)C(=O)O; Propionyl = CCC(=O)*"}
{"target": "T1, CRF1R receptor (UniProt P34998 24-415, limits assumed)", "T1 sequence (looked up)": "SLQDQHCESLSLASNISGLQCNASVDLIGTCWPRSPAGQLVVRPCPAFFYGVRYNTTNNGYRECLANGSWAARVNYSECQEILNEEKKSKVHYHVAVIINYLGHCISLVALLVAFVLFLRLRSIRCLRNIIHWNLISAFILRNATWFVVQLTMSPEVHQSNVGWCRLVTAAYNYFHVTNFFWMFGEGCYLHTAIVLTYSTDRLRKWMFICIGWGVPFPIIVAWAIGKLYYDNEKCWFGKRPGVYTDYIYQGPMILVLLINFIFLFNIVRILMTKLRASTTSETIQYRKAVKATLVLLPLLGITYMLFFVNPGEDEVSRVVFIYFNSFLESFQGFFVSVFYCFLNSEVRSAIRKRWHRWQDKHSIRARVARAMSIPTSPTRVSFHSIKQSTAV", "assay": "cell-based or functional assay", "units": {"Emax (% I)": "%"}}
{"binder": "B1", "Emax (% I)": 4}
{"binder": "B2", "Emax (% I)": 6}
{"binder": "B3", "Emax (% I)": 6}
{"binder": "B4", "Emax (% I)": 10}
{"binder": "B5", "Emax (% I)": 3}
{"binder": "B6", "Emax (% I)": 13}
{"target": "human corticotropin-releasing factor 2a (CRF2a receptor) (human), Q13324", "sequence (Q13324 20-411)": "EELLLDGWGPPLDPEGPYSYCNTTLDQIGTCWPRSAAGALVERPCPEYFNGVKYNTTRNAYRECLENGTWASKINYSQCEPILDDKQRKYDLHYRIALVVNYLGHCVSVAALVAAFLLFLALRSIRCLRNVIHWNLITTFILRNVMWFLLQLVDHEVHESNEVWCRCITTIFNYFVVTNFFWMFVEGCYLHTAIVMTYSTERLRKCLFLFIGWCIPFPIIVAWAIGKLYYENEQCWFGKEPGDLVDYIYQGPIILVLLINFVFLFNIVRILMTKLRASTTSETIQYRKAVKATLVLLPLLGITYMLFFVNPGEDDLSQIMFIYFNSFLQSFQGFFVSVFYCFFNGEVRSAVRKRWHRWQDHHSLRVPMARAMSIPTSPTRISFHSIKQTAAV", "assay": "cell-based or functional assay", "units": {"EC50 [nM] (cAMP)": "nM"}}
{"binder": "B1", "EC50 [nM] (cAMP)": 1.05}
{"binder": "B2", "EC50 [nM] (cAMP)": 0.8}
{"binder": "B3", "EC50 [nM] (cAMP)": 5.76}
{"binder": "B4", "EC50 [nM] (cAMP)": 3.55}
{"binder": "B5", "EC50 [nM] (cAMP)": 4.44}
{"binder": "B6", "EC50 [nM] (cAMP)": 0.23}
